Starred links: 1 amine or outer side, 2 acyl side, 3 side chain; linkers in the order of their positions; H or OH if unused. Non-standard residues stand in square brackets, D forms with d. *: point of attachment. Oic = O=C(O)[C@@H]1C[C@@H]2CCCC[C@@H]2N1; Heptadecanoyl = CCCCCCCCCCCCCCCCC(=O)*; γGlu = O=C(O)[C@H](CCC(=O)[*:2])N[*:1]; 2Nal = N[C@@H](Cc1ccc2ccccc2c1)C(=O)O; Pentadecanoyl = CCCCCCCCCCCCCCC(=O)*; NMeR = CN[C@@H](CCCNC(=N)N)C(=O)O; Tridecanoyl = CCCCCCCCCCCCC(=O)*; hArg = N=C(N)NCCCC[C@H](N)C(=O)O; Tic = O=C(O)[C@@H]1Cc2ccccc2CN1; Cha = N[C@@H](CC1CCCCC1)C(=O)O; NMeL = CN[C@@H](CC(C)C)C(=O)O; Nle = CCCC[C@H](N)C(=O)O; Orn = NCCC[C@H](N)C(=O)O; AEEA = NCCOCCOCC(=O)O
T1: human APJ receptor (human, UniProt P35414 1-380)
T1 sequence (looked up): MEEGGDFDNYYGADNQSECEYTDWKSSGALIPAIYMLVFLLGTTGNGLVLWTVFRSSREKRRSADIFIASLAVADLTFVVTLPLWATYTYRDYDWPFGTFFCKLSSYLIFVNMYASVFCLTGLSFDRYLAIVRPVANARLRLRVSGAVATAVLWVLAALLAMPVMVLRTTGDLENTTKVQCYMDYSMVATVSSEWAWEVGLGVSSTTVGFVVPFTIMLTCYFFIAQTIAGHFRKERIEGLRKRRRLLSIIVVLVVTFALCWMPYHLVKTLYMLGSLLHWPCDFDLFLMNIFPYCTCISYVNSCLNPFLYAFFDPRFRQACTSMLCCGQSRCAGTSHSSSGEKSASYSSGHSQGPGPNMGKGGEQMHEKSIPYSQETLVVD

T2: rat APJ receptor (rat, UniProt Q9JHG3 1-377)
T2 sequence (looked up): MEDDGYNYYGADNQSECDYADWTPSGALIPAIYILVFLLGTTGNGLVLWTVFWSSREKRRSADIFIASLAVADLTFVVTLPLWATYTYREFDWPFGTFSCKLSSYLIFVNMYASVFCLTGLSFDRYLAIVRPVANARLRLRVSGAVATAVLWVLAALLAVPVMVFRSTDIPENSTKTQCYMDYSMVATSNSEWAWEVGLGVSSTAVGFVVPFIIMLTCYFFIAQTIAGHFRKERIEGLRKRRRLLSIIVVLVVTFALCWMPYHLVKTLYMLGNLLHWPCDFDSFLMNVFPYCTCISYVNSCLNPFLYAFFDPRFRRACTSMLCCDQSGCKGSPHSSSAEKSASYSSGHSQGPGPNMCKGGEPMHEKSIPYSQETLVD


How the values were obtained:
human APJ receptor = biological target: T1, human APJ receptor; experiment: cell-based or functional assay
rat APJ receptor = biological target: T2, rat APJ receptor; experiment: cell-based or functional assay

Row | EC50 Human APJ Receptor (human APJ receptor) [nM] | EC50 Rat APJ Receptor (rat APJ receptor) [nM] | Binder
1 | 1.75 | 2.57 | Pentadecanoyl-[γGlu][AEEA][AEEA][Orn]F[hArg][hArg]QRP[hArg][NMeL]SHKG[Oic][Nle][2Nal]-OH (SMILES CCCCCCCCCCCCCCC(=O)N[C@@H](CCC(=O)NCCOCCOCC(=O)NCCOCCOCC(=O)N[C@@H](CCCN)C(=O)N[C@@H](Cc1ccccc1)C(=O)N[C@@H](CCCCNC(=N)N)C(=O)N[C@@H](CCCCNC(=N)N)C(=O)N[C@@H](CCC(N)=O)C(=O)N[C@@H](CCCNC(=N)N)C(=O)N1CCC[C@H]1C(=O)N[C@@H](CCCCNC(=N)N)C(=O)N(C)[C@@H](CC(C)C)C(=O)N[C@@H](CO)C(=O)N[C@@H](Cc1c[nH]cn1)C(=O)N[C@@H](CCCCN)C(=O)NCC(=O)N1[C@H](C(=O)N[C@@H](CCCC)C(=O)N[C@@H](Cc2ccc3ccccc3c2)C(=O)O)C[C@@H]2CCCC[C@@H]21)C(=O)O) [apelin polypeptide SEQ ID NO: 258]
2 | 2.59 | 2.09 | Heptadecanoyl-[γGlu][AEEA][AEEA][Orn]F[hArg][hArg]QRP[hArg][NMeL]SHKG[Oic][Nle][2Nal]-OH (SMILES CCCCCCCCCCCCCCCCC(=O)N[C@@H](CCC(=O)NCCOCCOCC(=O)NCCOCCOCC(=O)N[C@@H](CCCN)C(=O)N[C@@H](Cc1ccccc1)C(=O)N[C@@H](CCCCNC(=N)N)C(=O)N[C@@H](CCCCNC(=N)N)C(=O)N[C@@H](CCC(N)=O)C(=O)N[C@@H](CCCNC(=N)N)C(=O)N1CCC[C@H]1C(=O)N[C@@H](CCCCNC(=N)N)C(=O)N(C)[C@@H](CC(C)C)C(=O)N[C@@H](CO)C(=O)N[C@@H](Cc1c[nH]cn1)C(=O)N[C@@H](CCCCN)C(=O)NCC(=O)N1[C@H](C(=O)N[C@@H](CCCC)C(=O)N[C@@H](Cc2ccc3ccccc3c2)C(=O)O)C[C@@H]2CCCC[C@@H]21)C(=O)O) [apelin polypeptide SEQ ID NO: 259]

Continued, binder first:

Row | Binder | EC50 Human APJ Receptor (human APJ receptor) [nM] | EC50 Rat APJ Receptor (rat APJ receptor) [nM]
3 | Tridecanoyl-[γGlu][AEEA][AEEA][Orn]F[hArg][hArg]QRP[hArg][NMeL]SHKG[Oic][Nle][2Nal]-OH (SMILES CCCCCCCCCCCCC(=O)N[C@@H](CCC(=O)NCCOCCOCC(=O)NCCOCCOCC(=O)N[C@@H](CCCN)C(=O)N[C@@H](Cc1ccccc1)C(=O)N[C@@H](CCCCNC(=N)N)C(=O)N[C@@H](CCCCNC(=N)N)C(=O)N[C@@H](CCC(N)=O)C(=O)N[C@@H](CCCNC(=N)N)C(=O)N1CCC[C@H]1C(=O)N[C@@H](CCCCNC(=N)N)C(=O)N(C)[C@@H](CC(C)C)C(=O)N[C@@H](CO)C(=O)N[C@@H](Cc1c[nH]cn1)C(=O)N[C@@H](CCCCN)C(=O)NCC(=O)N1[C@H](C(=O)N[C@@H](CCCC)C(=O)N[C@@H](Cc2ccc3ccccc3c2)C(=O)O)C[C@@H]2CCCC[C@@H]21)C(=O)O) [apelin polypeptide SEQ ID NO: 257] | 1.49 | 3.14
4 | Tridecanoyl-[γGlu][AEEA][AEEA]Q[dR]P[NMeR][Cha]SHKG[Oic][Nle]P[Tic]-OH (SMILES CCCCCCCCCCCCC(=O)N[C@@H](CCC(=O)NCCOCCOCC(=O)NCCOCCOCC(=O)N[C@@H](CCC(N)=O)C(=O)N[C@H](CCCNC(=N)N)C(=O)N1CCC[C@H]1C(=O)N(C)[C@@H](CCCNC(=N)N)C(=O)N[C@@H](CC1CCCCC1)C(=O)N[C@@H](CO)C(=O)N[C@@H](Cc1c[nH]cn1)C(=O)N[C@@H](CCCCN)C(=O)NCC(=O)N1[C@H](C(=O)N[C@@H](CCCC)C(=O)N2CCC[C@H]2C(=O)N2Cc3ccccc3C[C@H]2C(=O)O)C[C@@H]2CCCC[C@@H]21)C(=O)O) [apelin polypeptide SEQ ID NO: 244] | 10.3 | 281

From patent US10941182 (Amgen, dated 2021)
